Laboratory results as given in patent US20240024501A1 (BONUM THERAPEUTICS, published 2024).

Target: PD-1-Fc (UniProt Q15116 25-167, limits assumed)
Experiment: cell-based or functional assay

Sequence of PD-1-Fc (Q15116 25-167 limits assumed): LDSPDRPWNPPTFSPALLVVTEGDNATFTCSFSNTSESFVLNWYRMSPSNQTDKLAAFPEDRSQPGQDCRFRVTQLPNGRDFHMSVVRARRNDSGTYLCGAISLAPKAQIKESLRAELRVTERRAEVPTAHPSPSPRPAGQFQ

Row | Binder | EC50 of IL-2 activity, HEK-Blue IL-2 reporter cells, IgG1 coated wells (no PD-1) [nM] | EC50 of IL-2 activity, HEK-Blue IL-2 reporter cells, PD-1 coated wells [nM]
1 | AF4379 (other) heavy: APTSSSTKKTQLQLEHLLLDLQMILNGINNYKNPKLTDMLTFEFYMPKKATELKHLQCLERELKPLEEVLNLAQSKNFHLRPRDLISNINVIVLELKGSETTFMCEYADETATIVEFLNRWITFCQSIISTLTGGGGSGGGGSGGGGSGGGGSQVQLVQSGAEVKKPGASVKVSCKASGDTFTRYYVHWVRQAPGQGLEWMGIINPSGGYASYAQKFQGRVTMTRDTSTSTVYMELSSLRSEDTAVYYCAAGLFIWGQGTLVTVSSAKTTAPSVYPLAPVCGDTTGSSVTLGCLVKGYFPEPVTLTWNSGSLSSGVHTFPAVLQSDLYTLSSSVTVTSSTWPSQSITCNVAHPASSTKVDKKIEPRGPTIKPCPPCKCPAPNAAGGPSVFIFPPKIKDVLMISLSPIVTCVVVDVSEDDPDVQISWFVNNVEVHTAQTQTHREDYNSTLRVVSALPIQHQDWMSGKEFKCKVNNKDLGAPIERTISKPKGSVRAPQVYVLPPPEEEMTKKQVTLTCMVTDFMPEDIYVEWTNNGKTELNYKNTEPVLDSDGSYFMYSKLRVEKKNWVERNSYSCSVVHEGLHNHHTTKSFSRTPGK light: DIQMTQSPSSLSASVGDRVTITCRASQSIGRYLAWYQQKPGKAPKLLIYSASNLETGVPSRFSGSGSGTDFTLTISSLQPEDFATYYCQQYNSFPVTFGPGTKVDIKRADAAPTVSIFPPSSEQLTSGGASVVCFLNNFYPKDINVKWKIDGSERQNGVLNSWTDQDSKDSTYSMSSTLTLTKDEYERHNSYTCEATHKTSTSPIVKSFNRNEC | 0.062 | 0.031
2 | AF4389 (other) heavy 1: APTSSSTKKTQLQLEHLLLDLQMILNGINNYKNPKLTDMLTFEFYMPKKATELKHLQCLERELKPLEEVLNLAQSKNFHLRPRDLISNINVIVLELKGSETTFMCEYADETATIVEFLNRWITFCQSIISTLTGGGGSGGGGSGGGGSGGGGSQVQLVQSGAEVKKPGASVKVSCKASGHTFTRYYMHWVRQAPGQGLEWMGIINPSGGYATYAQKFQGRVTMTRDTSTSTVYMELSSLRSEDTAVYYCASGLFIWGQGTLVTVSSAKTTAPSVYPLAPVCGDTTGSSVTLGCLVKGYFPEPVTLTWNSGSLSSGVHTFPAVLQSDLYTLSSSVTVTSSTWPSQSITCNVAHPASSTKVDKKIEPRGPTIKPCPPCKCPAPNAAGGPSVFIFPPKIKDVLMISLSPIVTCVVVDVSEDDPDVQISWFVNNVEVHTAQTQTHREDYNSTLRVVSALPIQHQDWMSGKEFKCKVNNKDLGAPIERTISKPKGSVRAPQVYVLPPPEEEMTKKQVTLTCMVTDFMPEDIYVEWTNNGKTELNYKNTEPVLDSDGSYFMYSDLRVEKKNWVERNSYSCSVVHEGLHNHHTTESFSRTPGK heavy 2: QVQLVQSGAEVKKPGASVKVSCKASGHTFTRYYMHWVRQAPGQGLEWMGIINPSGGYATYAQKFQGRVTMTRDTSTSTVYMELSSLRSEDTAVYYCASGLFIWGQGTLVTVSSAKTTAPSVYPLAPVCGDTTGSSVTLGCLVKGYFPEPVTLTWNSGSLSSGVHTFPAVLQSDLYTLSSSVTVTSSTWPSQSITCNVAHPASSTKVDKKIEPRGPTIKPCPPCKCPAPNAAGGPSVFIFPPKIKDVLMISLSPIVTCVVVDVSEDDPDVQISWFVNNVEVHTAQTQTHREDYNSTLRVVSALPIQHQDWMSGKEFKCKVNNKDLGAPIERTISKPKGSVRAPQVYVLPPPEKEMTKKQVSLTCLVKDFMPEDIYVEWTNNGKTELNYKNTEPVLKSDGSYFMYSKLTVEKKNWVERNSYSCSVVHEGLHNHHTTKSFSRTPGGGGSGGGSHHHHHH light: DIQMTQSPSSLSASVGDRVTITCRASQSINSWLAWYQQKPGKAPKLLIYATSTLESGVPSRFSGSGSGTDFTLTISSLQPEDFATYYCQQYYRFPVTFGQGTKVEIKRADAAPTVSIFPPSSEQLTSGGASVVCFLNNFYPKDINVKWKIDGSERQNGVLNSWTDQDSKDSTYSMSSTLTLTKDEYERHNSYTCEATHKTSTSPIVKSFNRNEC | 1.67 | 0.118
